In IntAct's records for PubMed 17462627:

B1: Emerin (Homo sapiens), P50402 (parent)
chain: MDNYADLSDTELTTLLRRYNIPHGPVVGSTRRLYEKKIFEYETQRRRLSPPSSSAASSYSFSDLNSTRGDADMYDLPKKEDALLYQSKGYNDDYYEESYFTTRTYGEPESAGPSRAVRQSVTSFPDADAFHHQVHDDDLLSSSEEECKDRERPMYGRDSAYQSITHYRPVSASRSSLDLSYYPTSSSTSFMSSSSSSSSWLTRRAIRPENRAPGAGLGQDRQVPLWGQLLLFLVFVIVLFFIYHFMQAEEGNPF

Tests used:
SYNE1, Q8NF91-3 = variants of: B1; details: with SYNE1, Q8NF91-3
SYNE2, Q8WXH0-3 = variants of: B1; details: with SYNE2, Q8WXH0-3
SYNE2, Q8WXH0-3, sequence (Q8WXH0 6031-6885): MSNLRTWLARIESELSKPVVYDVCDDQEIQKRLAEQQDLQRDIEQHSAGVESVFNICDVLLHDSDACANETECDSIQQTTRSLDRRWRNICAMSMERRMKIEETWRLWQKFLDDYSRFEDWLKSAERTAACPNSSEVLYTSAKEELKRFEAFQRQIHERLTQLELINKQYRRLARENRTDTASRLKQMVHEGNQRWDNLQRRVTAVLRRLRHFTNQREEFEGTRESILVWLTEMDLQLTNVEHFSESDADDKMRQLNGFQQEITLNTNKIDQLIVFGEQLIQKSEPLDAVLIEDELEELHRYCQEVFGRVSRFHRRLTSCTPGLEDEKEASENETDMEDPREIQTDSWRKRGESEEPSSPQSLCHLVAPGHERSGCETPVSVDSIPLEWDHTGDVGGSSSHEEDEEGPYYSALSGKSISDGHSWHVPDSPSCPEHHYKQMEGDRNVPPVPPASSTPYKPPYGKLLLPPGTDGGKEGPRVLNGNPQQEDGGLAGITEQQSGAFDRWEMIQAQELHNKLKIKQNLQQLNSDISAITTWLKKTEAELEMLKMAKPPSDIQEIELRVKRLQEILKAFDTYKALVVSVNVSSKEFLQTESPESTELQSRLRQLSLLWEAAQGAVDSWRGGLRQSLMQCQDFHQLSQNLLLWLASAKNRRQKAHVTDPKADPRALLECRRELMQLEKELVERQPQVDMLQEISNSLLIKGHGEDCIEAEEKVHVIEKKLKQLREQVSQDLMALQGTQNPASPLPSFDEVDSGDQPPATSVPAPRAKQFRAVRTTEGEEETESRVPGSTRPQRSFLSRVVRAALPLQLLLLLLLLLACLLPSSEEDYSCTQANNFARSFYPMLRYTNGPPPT

SYNE1, Q8NF91-3, sequence (Q8NF91 other isoform, or with tags, fused parts or gaps): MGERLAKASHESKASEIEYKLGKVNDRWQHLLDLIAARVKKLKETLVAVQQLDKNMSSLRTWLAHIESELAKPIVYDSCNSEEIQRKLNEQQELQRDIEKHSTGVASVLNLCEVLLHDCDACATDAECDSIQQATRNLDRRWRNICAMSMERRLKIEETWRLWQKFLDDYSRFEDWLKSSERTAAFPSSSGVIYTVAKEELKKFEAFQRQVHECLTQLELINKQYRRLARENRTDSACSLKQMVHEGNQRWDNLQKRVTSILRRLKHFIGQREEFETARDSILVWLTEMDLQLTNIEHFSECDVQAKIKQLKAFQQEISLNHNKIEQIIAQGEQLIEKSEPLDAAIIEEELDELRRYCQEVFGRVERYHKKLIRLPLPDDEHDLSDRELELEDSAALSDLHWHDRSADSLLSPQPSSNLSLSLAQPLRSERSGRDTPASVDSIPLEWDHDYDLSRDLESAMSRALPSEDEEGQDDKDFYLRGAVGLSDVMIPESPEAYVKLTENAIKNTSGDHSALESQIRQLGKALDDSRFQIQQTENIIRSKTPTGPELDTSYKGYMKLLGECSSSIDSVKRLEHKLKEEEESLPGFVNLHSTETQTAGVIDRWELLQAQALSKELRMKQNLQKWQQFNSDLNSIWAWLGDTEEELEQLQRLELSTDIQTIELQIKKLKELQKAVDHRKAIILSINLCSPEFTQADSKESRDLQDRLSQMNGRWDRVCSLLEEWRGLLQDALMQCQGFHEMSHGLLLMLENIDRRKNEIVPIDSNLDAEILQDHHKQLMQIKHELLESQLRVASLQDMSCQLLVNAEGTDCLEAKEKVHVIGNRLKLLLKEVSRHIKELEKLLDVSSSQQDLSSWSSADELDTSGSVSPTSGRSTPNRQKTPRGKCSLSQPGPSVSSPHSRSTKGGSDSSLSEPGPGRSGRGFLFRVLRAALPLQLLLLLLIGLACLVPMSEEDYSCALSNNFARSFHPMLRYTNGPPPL

Row | effect of a mutation on the interaction (SYNE1, Q8NF91-3) | effect of a mutation on the interaction (SYNE2, Q8WXH0-3) | Variant
1 | increasing interaction strength | increasing interaction strength | P183H
2 | decreasing interaction strength | increasing interaction strength | P183T
3 | increasing interaction strength |  | Q133H
